Where “and” joins values, the source holds several entries; their conditions need not be identical. Equal entries are not always repeated.
Molecular target: T1, Drosophila GOLPH3, GST removed (ligand of the SPR experiment) (Drosophila melanogaster, UniProt Q9VQ93 1-294)
T1 construct: Drosophila melanogaster GOLPH3 (CG7085, sauron), polypeptide of 293 amino acids, full-length cDNA in pGEX-6p-2; A few vector residues probably remain at the N-terminus after PreScission cleavage; also called dGOLPH3; source: E. coli BL21-CodonPlus [DE3], purified as GST fusion, GST cleaved off with PreScission Protease; not shown: GST, N-terminal, cleaved
T1 sequence (Q9VQ93 whole entry, the tested form may be a part): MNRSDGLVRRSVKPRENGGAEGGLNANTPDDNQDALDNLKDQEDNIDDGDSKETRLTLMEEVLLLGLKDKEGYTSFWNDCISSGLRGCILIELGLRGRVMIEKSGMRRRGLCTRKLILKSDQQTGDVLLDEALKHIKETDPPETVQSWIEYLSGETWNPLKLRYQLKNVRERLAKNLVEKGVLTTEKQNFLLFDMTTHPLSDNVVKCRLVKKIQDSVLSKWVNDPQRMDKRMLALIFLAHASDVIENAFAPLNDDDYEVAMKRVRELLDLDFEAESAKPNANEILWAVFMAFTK
Experiment: SPR; BIACORE X, GOLPH3 immobilised on CM5 chip by amine coupling (about 1200 RU); Rab11 analyte 50 nM to 10.0 µM in 10 mM Hepes pH 7.4, 150 mM NaCl, 0.005% surfactant P20, 30 µl/min
Conditions: both partners purified

Kd: 180 nM
koff: ~0.0002 s⁻¹ and ~0.0001 s⁻¹
B1: Drosophila Rab11, GST removed (analyte of the SPR experiment) (natural protein, UniProt O18335 1-214, looked up)
chain: MGAREDEYDYLFKVVLIGDSGVGKSNLLSRFTRNEFNLESKSTIGVEFATRSIEVDGKTIKAQIWDTAGQERYRAITSAYYRGAVGALLVYDIAKHLTYENVERWLRELRDHADQNIVIMLVGNKSDLRHLRSVPTDEAKLFAERNGLSFIETSALDSTNVETAFQNILTEIYRIVSQKQIRDPPEGDVIRPSNVEPIDVKPTVTADVRKQCCQ
notes: Drosophila Rab11, full-length, made as GST fusion; source: E. coli BL21-CodonPlus [DE3], purified as GST fusion, GST cleaved off with PreScission Protease
